Molecular target: the molecule itself
Assay: SEC; Superdex 200 16/60, 20 mM HEPES-NaOH pH 8.0, 250 mM NaCl, 2 mM DTT, proteins ~3 mg/ml, 1 ml/min, calibrated with ferritin, aldolase, conalbumin and ovalbumin; oligomeric state from the elution volume

B1: 6-P-β-glucosidase from Streptococcus mutans UA159 (SmBgl) (enzyme)
chain: SNAMSKLPENFLWGGAVAAHQLEGGWQEGGKGISVADVMTAGRHGVAREITAGVLEGKYYPNHEAIDFYHHYKEDVKLFAEMGFKCFRTSIAWTRIFPKGDEAEPNEAGLQFYDDLFDECLKYGIEPVVTLSHFELPYHLVTEYGGFTNRKVIDFFVHFAEVCFRRYKDKVKYWMTFNEINNQANYQEDFAPFTNSGIVYKEGDDREAIMYQAAHYELVASARAVKIGHAINPNLNIGCMVAMCPIYPATCNPKDILMAQKAMQKRYYFADVHVHGFYPEHIFKYWERKAIKVDFTERDKKDLFEGTVDYIGFSYYMSFVIDAHRENNPYYDYLETEDLVKNPYVKASDWDWQIDPQGLRYALNWFTDMYHLPLFIVENGFGAIDQVEADGMVHDDYRIDYLGAHIKEMIKAVDEDGVELMGYTPWGCIDLVSAGTGEMRKRYGFIYVDKDDEGKGTLKRSPKLSFNWYKEVIASNGDDI
notes: non-natural N-terminal extension left after TEV cleavage of the His6 tag (vector pMCSG7); 6-P-β-glucosidase Bgl of Streptococcus mutans UA159, 477 residues (Met1-Ile477), amplified from genomic DNA; The SAD structure (3pn8) was solved from selenomethionine-labelled protein; source: E. coli BL21 (DE3) Magic, purified (IMAC-I, SEC on Superdex 200, TEV cleavage of the His6 tag, IMAC-II); not shown: …
- stoichiometry N: 2
